Test results: US20230174616A1 (UNIVERSITY OF SOUTHERN CALIFORNIA, published 2023)
Primed or numbered codes have the meaning given here. Where no end group is shown, it is not given here. Side-chain parts run from the residue outwards. [ ]: non-standard residue; d: D form. triazole = 1,2,3-triazole formed by click reaction of the propargylglycine alkyne with ROX-azide; Pra′ = its azide, alkyne or alkene has reacted where a group follows in round brackets; ROX = carboxy-X-rhodamine, joined by click triazole

Experiments:
[1] = target: T1, biotinylated hPD-L1 (extracellular domain of human PD-L1, Ala18 to Thr239, expressed in E. coli, … (human, biotin on the epsilon-amino group of the Avi tag lysine (BirA))); assay: fluorescence anisotropy, 100 nM ROX-SPAM titrated with hPD-L1
T1 construct: also called recombinant hPD-L1; non-glycosylated hPD-L1
Procedure: (§1) Each measurement was carried out in triplicate and the mean value was reported along with the standard deviation. […] The mean of the normalized binding for each incubation time is shown along with the standard deviation of the mean. Each measurement was carried out in triplicate and error bars show the standard deviation of the mean (Students t-test; p value <0.05 (*), <0.01 (**), <0.005 (***), <0.001 (****)).
(§2) The resulting values were plotted against the concentration of hPD-L1 or hPD-L1* and fit to a one-site saturation binding model with GraphPad Prism.

[2] = target: T2, hPD-L1* (recombinant glycosylated human PD-L1 ectodomain, A18-T239, expressed in Expi293F cells) (human, UniProt Q9NZQ7 18-239, N-glycosylated; Avi tag biotinylated in vitro with BirA); assay: fluorescence polarization, 100 nM ROX-SPAM with 2.4 nM-5 uM glycosylated hPD-L1*, 22 C (67 +/- 21 nM in paragraph 94); glycosylated hPD-L1*
T2 construct: also called glycosylated hPD-L1
Procedure: as §2
(§3) The fluorescence polarization of each sample was measured on a Synergy H4 Hybrid Multi-Mode Microplate Reader. Each measurement was carried out in triplicate and the mean value was calculated. The values were fit to a one-site saturation binding model in GraphPad Prism to obtain the corresponding equilibrium dissociation constants.

[3] = target: T1, biotinylated hPD-L1 (extracellular …); assay: fluorescence polarization, 100 nM ROX-SPAM with 2.4 nM-5 uM non-glycosylated hPD-L1, 21 C (119 +/- 33 nM in paragraph 94); non-glycosylated, E. coli-expressed hPD-L1
Procedure: as §2, §3

[4] = target: T2, hPD-L1* (recombinant glycosylated human …); assay: fluorescence anisotropy, 100 nM ROX-SPAM titrated with hPD-L1*
Procedure: as §1, §2

B1: ROX-SPAM (carboxy-X-rhodamine labeled SPAM peptide) (peptide)
peptide: MPIFLDHILNKFWILHYASG[Pra′]([triazole-ROX])-NH2
modifications: also: ROX attached to Pra by click triazole
notes: Synthetic peptide used in fluorescence polarization; also called ROX-labeled SPAM
EC50 (read off the curve) [1]: ~100 nM
Kd [2]: 67 nM
Kd [3]: 119 nM
EC50 (read off the curve) [4]: ~70 nM
